Source: paper PMC3596254

Molecular target: GFP-tagged T759A mutant DIAPH1 (murine pEGFP-mDia T751A) (murine) (UniProt O08808)
Assay: co-IP

Chain of UniProt O08808 (O08808 whole entry T751A): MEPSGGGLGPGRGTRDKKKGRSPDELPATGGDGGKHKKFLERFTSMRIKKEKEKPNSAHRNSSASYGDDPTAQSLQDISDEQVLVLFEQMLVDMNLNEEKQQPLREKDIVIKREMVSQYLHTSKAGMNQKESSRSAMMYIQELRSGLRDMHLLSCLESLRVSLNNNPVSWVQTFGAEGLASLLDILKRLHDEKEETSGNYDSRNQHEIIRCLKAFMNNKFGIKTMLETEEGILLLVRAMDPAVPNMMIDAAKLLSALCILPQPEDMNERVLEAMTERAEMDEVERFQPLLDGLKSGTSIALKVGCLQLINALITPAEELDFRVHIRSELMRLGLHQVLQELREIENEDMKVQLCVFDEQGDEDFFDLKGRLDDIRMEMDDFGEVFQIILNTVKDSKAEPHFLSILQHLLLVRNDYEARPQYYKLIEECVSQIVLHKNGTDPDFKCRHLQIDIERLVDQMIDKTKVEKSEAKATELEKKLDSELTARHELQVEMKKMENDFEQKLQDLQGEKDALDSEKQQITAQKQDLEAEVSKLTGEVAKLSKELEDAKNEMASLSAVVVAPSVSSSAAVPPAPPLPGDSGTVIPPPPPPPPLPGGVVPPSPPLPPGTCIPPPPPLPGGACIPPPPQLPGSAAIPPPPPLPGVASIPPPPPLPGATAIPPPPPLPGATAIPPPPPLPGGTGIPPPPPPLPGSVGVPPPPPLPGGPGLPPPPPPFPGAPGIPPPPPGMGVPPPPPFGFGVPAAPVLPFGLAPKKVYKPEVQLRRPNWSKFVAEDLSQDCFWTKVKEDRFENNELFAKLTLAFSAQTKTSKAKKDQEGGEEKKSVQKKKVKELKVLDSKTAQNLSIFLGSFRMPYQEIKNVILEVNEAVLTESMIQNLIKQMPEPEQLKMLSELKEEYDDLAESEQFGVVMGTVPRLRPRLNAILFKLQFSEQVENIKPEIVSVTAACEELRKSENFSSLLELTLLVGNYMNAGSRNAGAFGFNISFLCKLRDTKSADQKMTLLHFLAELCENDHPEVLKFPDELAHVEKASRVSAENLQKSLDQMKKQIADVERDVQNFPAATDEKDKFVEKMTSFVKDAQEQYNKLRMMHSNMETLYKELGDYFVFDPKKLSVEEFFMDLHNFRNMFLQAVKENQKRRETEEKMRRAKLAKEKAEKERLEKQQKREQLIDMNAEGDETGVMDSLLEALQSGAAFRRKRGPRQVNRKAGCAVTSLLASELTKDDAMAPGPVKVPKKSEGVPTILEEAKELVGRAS

| Substance | percent decrease of the co-precipitate against wild type |
| --- | --- |
| Actin, β (from UniProt P60709 1-375) (natural protein) | 86% |
| Kinesin heavy chain (from UniProt P33176 1-963) (natural protein) | 65% |
